According to patent US20110262445A1:

Molecular target: human IL-12, IL-23, IL-12p40
Experiment: SPR

B1: Antibody 1 (antibody, human IgG1, kappa, V domains shown)
VH: EVQLQQSGADLVRSGASIKLSCTASGFNIKDYYMHWVKQRPEQGLEWIGWIDPENGDTEYAPKFQGKATMTADTSSNTAYLQLSSLTSEDTAVYYCNACKELRYFDVWGAGTTVTVSS
VL: DIVLTQSPATLSVTPGDSVSLSCRASQSISINLHWYQQKSHESPRLLIKFASQSISGIPSRFSGYGSGTDFTLSINSVETEDFGRYFCQQSNSWPLTFGAGTKLELKR
With B1 as the binder, how does the Kd read?
Its Kd is 0.04 to 0.07 nM.
